The values below come from article PMC11756183.

The nature of the series: IP and western blot in MSC-T. The settings on record: glycan lost; control: wild-type GPNMB (MSC-T/OEG).

B1: GPNMB (Glycoprotein non-metastatic melanoma protein B): N249Q (protein)
parent chain: MESLCGVLGFLLLAAGLPLQAAKRFRDVLGHEQYPDHMREHNQLRGWSSDENEWDEHLYPVWRRGDGRWKDSWEGGRVQAVLTSDSPALVGSNITFVVNLVFPRCQKEDANGNIVYEKNCRNDLGLTSDLHVYNWTAGADDGDWEDGTSRSQHLRFPDRRPFPRPHGWKKWSFVYVFHTLGQYFQKLGRCSARVSINTVNLTAGPQVMEVTVFRRYGRAYIPISKVKDVYVITDQIPVFVTMSQKNDRNLSDEIFLRDLPIVFDVLIHDPSHFLNDSAISYKWNFGDNTGLFVSNNHTLNHTYVLNGTFNLNLTVQTAVPGPCPPPSPSTPPPPSTPPSPPPSPLPTLSTPSPSLMPTGYKSMELSDISNENCRINRYGYFRATITIVEGILEVSIMQIADVPMPTPQPANSLMDFTVTCKGATPMEACTIISDPTCQIAQNRVCSPVAVDGLCLLSVRRAFNGSGTYCVNFTLGDDASLALTSTLISIPGKDPDSPLRAVNGVLISIGCLAVLVTMVTILLYKKHKAYKPIGNCPRNTVKGKGLSVLLSHAKAPFFRGDQEKDPLLQDKPRTL
As for B1, the expression_or_secretion entry is recorded as “decreases”.
